Publication PMC7300015

How the values were obtained:
[1] = biological target: HKU2 spike glycoprotein ectodomain (residues 1-1066) (Rhinolophus bat coronavirus HKU2); experiment: cryo-EM structure
[2] = biological target: SADS-CoV spike glycoprotein ectodomain (residues 1-1068) (swine acute diarrhea syndrome coronavirus (SADS-CoV)); experiment: cryo-EM structure

Substance	stoichiometry N [1]	stoichiometry N [2]
HKU2 spike glycoprotein ectodomain (residues 1-1066) (domain or fragment)	3	–
SADS-CoV spike glycoprotein ectodomain (residues 1-1068) (domain or fragment)	–	3
